Test results reported in EP4768505A1 (Shenzhen Genocury Biotech Co., Ltd, dated 2026).
Substitutions are numbered along the chain they refer to.

B1: anti-CD79B single-domain antibody JYB4 (VHH)
VHH: DVQLQESGGGLVQPGGSLRLSCAASGFAFSLYAMSWARQAPGKGLEWVSDIYGDDDSRRNYADSVKGRFTISRDNAKNTVYLQMTNLQPEDTALYYCGKGRDGTRWSAREYEYRGQGTQVTVSS
notes: Alpaca VHH from a phage library; not shown: His-tag protein at the C-terminal end
B2: anti-CD79B single-domain antibody JYB14 (VHH)
VHH: DVQLQESGGGLVQPGGSLSLTCTASISSLTIWVRAWHRQAPGKQRELVAAINSDGQTMYADSVKGRFTISRDNAKTTVSLQMDSLKPEDTAVYYCNVVTPNGQQYWGQGTQVTVSS
notes: Alpaca VHH from a phage library; ELISA detected with an anti-myc antibody; a myc tag is not described; not shown: His-tag protein at the C-terminal end
B3: anti-CD79B single-domain antibody JYB8 (VHH, not shown: small tags and cut ends)
VHH: B2 VHH with V12M, T30S, N73S, N101K
B4: anti-CD79B single-domain antibody JYB10 (VHH)
VHH: B2 VHH with T21S, T23A, L29S, T30S, S53N, D83N, N101K, Q103H
notes: as for B2
B5: anti-CD79B single-domain antibody JYB11 (VHH)
VHH: B2 VHH with T21S, T23A, I26M, L29P, T30S, I31L, T77L, N101R
notes: as for B2

What follows are binders tested against Human CD79B Protein, His Tag (MALS verified), Cat. No. #CDB-H52H3-1mg, ACRO (human) (UniProt P40259) (assay: ELISA on coated antigen, anti-myc detection; 200pg antibody added).

Binder | OD450 nm [OD450]
B1 | 0.0521
B2 | 0.0501
B3 | 0.0418
B4 | 0.0496

The binders below were run against Human CD79A+CD79B antigen (human) (UniProt P11912) in the same assay as above.

Binder | OD450 nm [OD450]
B1 | 0.0577
B2 | 0.0561
B3 | 0.0521
B4 | 0.0573

What follows are binders tested against T1, Mouse CD79B antigen (mouse, UniProt P15530 26-158, limits assumed) in the same assay as above.
T1 sequence (looked up): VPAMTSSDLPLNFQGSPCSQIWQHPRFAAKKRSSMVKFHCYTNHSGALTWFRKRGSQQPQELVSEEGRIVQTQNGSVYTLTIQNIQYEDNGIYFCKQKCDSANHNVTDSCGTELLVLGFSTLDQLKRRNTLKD

Binder | OD450 nm [OD450]
B3 | 0.0485
B4 | 0.0517

What follows are binders tested against T2, Mouse CD79A+CD79B antigen (mouse) (UniProt P11911) in the same assay as above.
T2 sequence (looked up) 1: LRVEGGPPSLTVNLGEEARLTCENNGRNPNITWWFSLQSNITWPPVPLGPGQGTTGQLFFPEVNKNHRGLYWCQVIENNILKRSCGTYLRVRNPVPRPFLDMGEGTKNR
T2 sequence (looked up) 2: T1 sequence (looked up)

Binder | OD450 nm [OD450]
B1 | 0.0601
B2 | 0.0609
B3 | 0.0619
B4 | 0.0584

Each binder was assayed against BSA (UniProt P02769) (assay: ELISA on coated BSA control, anti-myc detection; 200pg antibody added).
Chain of BSA (P02769 25-607 limits assumed): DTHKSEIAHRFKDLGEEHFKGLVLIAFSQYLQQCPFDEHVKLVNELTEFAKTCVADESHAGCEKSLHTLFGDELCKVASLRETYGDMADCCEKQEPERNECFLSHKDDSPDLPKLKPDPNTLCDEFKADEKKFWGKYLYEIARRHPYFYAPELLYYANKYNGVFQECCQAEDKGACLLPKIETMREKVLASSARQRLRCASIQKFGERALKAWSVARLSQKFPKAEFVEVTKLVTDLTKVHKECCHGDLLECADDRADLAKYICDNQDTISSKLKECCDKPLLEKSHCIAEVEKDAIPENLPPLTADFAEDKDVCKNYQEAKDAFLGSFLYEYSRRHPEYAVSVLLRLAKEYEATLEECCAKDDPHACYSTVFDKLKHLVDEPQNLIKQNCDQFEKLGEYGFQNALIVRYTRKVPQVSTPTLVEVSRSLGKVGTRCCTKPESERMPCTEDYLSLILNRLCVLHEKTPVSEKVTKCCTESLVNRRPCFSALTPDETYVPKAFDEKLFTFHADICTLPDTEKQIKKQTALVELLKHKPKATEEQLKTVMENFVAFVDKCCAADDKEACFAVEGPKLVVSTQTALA

Binder | OD450 nm [OD450]
B1 | 0.0476
B2 | 0.0489
B3 | 0.0534
B4 | 0.0488

What follows are binders tested against Human CD79B Protein, His Tag (MALS verified), Cat. No. #CDB-H52H3-1mg, ACRO (human) (UniProt P40259) (assay: ELISA on coated antigen, anti-myc detection; 200ng antibody added).

Binder | OD450 nm [OD450]
B1 | 0.375
B2 | 0.321
B3 | 0.308
B5 | 0.177
B4 | 0.144

These binders were tested against Human CD79A+CD79B antigen (human) (UniProt P11912) in the same assay as above.

Binder | OD450 nm [OD450]
B1 | 0.421
B2 | 0.421
B3 | 1.43
B5 | 0.271
B4 | 0.224

The binders below were run against T1, Mouse CD79B antigen in the same assay as above.

Binder | OD450 nm [OD450]
B3 | 0.0622
B4 | 0.0527

The binders below were run against T2, Mouse CD79A+CD79B antigen (mouse) in the same assay as above.

Binder | OD450 nm [OD450]
B1 | 0.0567
B2 | 0.0597
B3 | 0.068
B5 | 0.0589
B4 | 0.0601

The binders below were run against BSA (UniProt P02769) (assay: ELISA on coated BSA control, anti-myc detection; 2ug antibody added).

Binder | OD450 nm [OD450]
B1 | 0.0479
B2 | 0.0506
B3 | 0.0582
B5 | 0.0483
B4 | 0.0482

The binders below were run against T3, human CD79B antigen (a full-length protein containing signal peptide, UniProt ID: P40259) on cells (human, UniProt P40259 29-229) (assay: flow cytometry on HEK-293T cells overexpressing CD79B-GFP, 0.1 mg/mL, APC-His tag antibody).
T3 construct: whole, on cells; Used for the flow cytometry on transfected HEK-293T cells; F2A residues left at the C-terminus after cleavage are not described; also called CD79B-GFP molecule; HEK-293T cells overexpressing the CD79B-GFP molecule
T3 sequence (looked up): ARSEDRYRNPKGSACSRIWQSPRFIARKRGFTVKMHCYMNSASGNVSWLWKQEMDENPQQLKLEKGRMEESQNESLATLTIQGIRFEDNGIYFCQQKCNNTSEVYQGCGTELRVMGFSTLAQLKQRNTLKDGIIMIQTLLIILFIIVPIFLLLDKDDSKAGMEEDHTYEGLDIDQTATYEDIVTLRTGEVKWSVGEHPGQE

Binder | binding result
B1 | binds
B2 | binds
B5 | binds
B4 | binds

These binders were tested against Human CD79B Protein, His Tag (MALS verified), Cat. No. #CDB-H52H3-1mg, ACRO (human) (UniProt P40259) (assay: ELISA on coated antigen, anti-myc detection; 200µg [sic] antibody added (lowest step of the dilution series)).

Binder | OD450 nm [OD450]
B5 | 0.0516

Each binder was assayed against Human CD79A+CD79B antigen (human) (UniProt P11912) in the same assay as above.

Binder | OD450 nm [OD450]
B5 | 0.0556

These binders were tested against T2, Mouse CD79A+CD79B antigen (mouse) in the same assay as above.

Binder | OD450 nm [OD450]
B5 | 0.0586

The binders below were run against BSA (UniProt P02769) (assay: ELISA on coated BSA control, anti-myc detection; 20ug antibody added).

Binder | OD450 nm [OD450]
B1 | 0.0488
B2 | 0.0489
B3 | 0.0537
B5 | 0.0489
B4 | 0.0493

Each binder was assayed against Human CD79B Protein, His Tag (MALS verified), Cat. No. #CDB-H52H3-1mg, ACRO (human) (UniProt P40259) (assay: ELISA on coated antigen, anti-myc detection; 20ug antibody added).

Binder | OD450 nm [OD450]
B1 | 0.552
B2 | 0.495
B3 | 0.596
B5 | 0.379
B4 | 0.285

The binders below were run against Human CD79A+CD79B antigen (human) (UniProt P11912) in the same assay as above.

Binder | OD450 nm [OD450]
B1 | 0.658
B2 | 0.855
B3 | 0.922
B5 | 0.612
B4 | 0.816

These binders were tested against T1, Mouse CD79B antigen in the same assay as above.

Binder | OD450 nm [OD450]
B3 | 0.229
B4 | 0.0982

These binders were tested against T2, Mouse CD79A+CD79B antigen (mouse) in the same assay as above.

Binder | OD450 nm [OD450]
B1 | 0.049
B2 | 0.117
B3 | 0.356
B5 | 0.0981
B4 | 0.126

These binders were tested against BSA (UniProt P02769) (assay: ELISA on coated BSA control, anti-myc detection; 20ng antibody added).

Binder | OD450 nm [OD450]
B1 | 0.0499
B2 | 0.0476
B3 | 0.0554
B5 | 0.0471
B4 | 0.0474

These binders were tested against BSA (UniProt P02769) (assay: ELISA on coated BSA control, anti-myc detection; 200µg [sic] antibody added (lowest step of the dilution series)).

Binder | OD450 nm [OD450]
B5 | 0.0469

Each binder was assayed against BSA (UniProt P02769) (assay: ELISA on coated BSA control, anti-myc detection; 2ng antibody added).

Binder | OD450 nm [OD450]
B1 | 0.0479
B2 | 0.0474
B3 | 0.0474
B5 | 0.0485
B4 | 0.0486

These binders were tested against BSA (UniProt P02769) (assay: ELISA on coated BSA control, anti-myc detection; 200ng antibody added).

Binder | OD450 nm [OD450]
B1 | 0.049
B2 | 0.0493
B3 | 0.052
B5 | 0.048
B4 | 0.0473

The binders below were run against Human CD79B Protein, His Tag (MALS verified), Cat. No. #CDB-H52H3-1mg, ACRO (human) (UniProt P40259) (assay: ELISA on coated antigen, anti-myc detection; 20ng antibody added).

Binder | OD450 nm [OD450]
B1 | 0.15
B2 | 0.139
B3 | 0.145
B5 | 0.0947
B4 | 0.0739

Each binder was assayed against Human CD79A+CD79B antigen (human) (UniProt P11912) in the same assay as above.

Binder | OD450 nm [OD450]
B1 | 0.172
B2 | 0.116
B3 | 0.115
B5 | 0.0778
B4 | 0.0687

The binders below were run against T1, Mouse CD79B antigen in the same assay as above.

Binder | OD450 nm [OD450]
B3 | 0.0551
B4 | 0.0517

These binders were tested against T2, Mouse CD79A+CD79B antigen (mouse) in the same assay as above.

Binder | OD450 nm [OD450]
B1 | 0.0572
B2 | 0.0578
B3 | 0.0553
B5 | 0.0575
B4 | 0.0609

Each binder was assayed against Human CD79B Protein, His Tag (MALS verified), Cat. No. #CDB-H52H3-1mg, ACRO (human) (UniProt P40259) (assay: ELISA on coated antigen, anti-myc detection; 2ng antibody added).

Binder | OD450 nm [OD450]
B1 | 0.0519
B2 | 0.0507
B3 | 0.06
B5 | 0.0528
B4 | 0.0517

These binders were tested against Human CD79A+CD79B antigen (human) (UniProt P11912) in the same assay as above.

Binder | OD450 nm [OD450]
B1 | 0.063
B2 | 0.0603
B3 | 0.0544
B5 | 0.0567
B4 | 0.0596

What follows are binders tested against T1, Mouse CD79B antigen in the same assay as above.

Binder | OD450 nm [OD450]
B3 | 0.0512
B4 | 0.0512

These binders were tested against T2, Mouse CD79A+CD79B antigen (mouse) in the same assay as above.

Binder | OD450 nm [OD450]
B1 | 0.0574
B2 | 0.0584
B3 | 0.0543
B5 | 0.0582
B4 | 0.0584

What follows are binders tested against T1, Mouse CD79B antigen (assay: ELISA on coated antigen, anti-myc detection).

Binder | binding result
B1 | no binding (tested: 20ug)
B2 | no binding (tested: 20ug)
B5 | no binding (tested: 20ug)

What follows are binders tested against Human CD79B Protein, His Tag (MALS verified), Cat. No. #CDB-H52H3-1mg, ACRO (human) (UniProt P40259) (assay: ELISA on coated antigen, anti-myc detection; 2ug antibody added).

Binder | OD450 nm [OD450]
B1 | 0.485
B2 | 0.346
B3 | 0.506
B5 | 0.303
B4 | 0.221

What follows are binders tested against Human CD79A+CD79B antigen (human) (UniProt P11912) in the same assay as above.

Binder | OD450 nm [OD450]
B1 | 0.585
B2 | 0.634
B3 | 0.802
B5 | 0.519
B4 | 0.554

Each binder was assayed against T1, Mouse CD79B antigen in the same assay as above.

Binder | OD450 nm [OD450]
B3 | 0.178
B4 | 0.0588

The binders below were run against T2, Mouse CD79A+CD79B antigen (mouse) in the same assay as above.

Binder | OD450 nm [OD450]
B1 | 0.0549
B2 | 0.0726
B3 | 0.206
B5 | 0.0651
B4 | 0.0788
